Experimental data taken from the DeepSol protein solubility set.

Assay: soluble on expression in E. coli; label from the status in PepcDB or PDB records

| Sequence | soluble on expression in E. coli |
| --- | --- |
| QVRQSPQSLTVWEGETTILNCSYENSAFDYFPWYQQFPGEGPALLIAIRSVSDKKEDGRFTIFFNKREKKLSLHITDSQPGDSATYFCAATGANTGKLTFGHGTILRVHPNIQNPDPAVYQLRDSKSSDKSVCLFTDFDSQTNVSQSKDSDVYITDATVLDMRSMDFKSNSAVAWSNKSDFACANAFNNSIIPEDTFFPS | soluble |
| MARRILVVEAEAPIREMVCFVLEQNGFQPVEAEDYDSAVNQLNEPWPDLILLEWMLPGGSGIQFIKHLKRESMTRDIPVVMLTARGEEEDRVRGLETGADDYITKPFSPKELVARIKAVMRRISPMA | soluble |
| MAHHHHHHMNKVVIISIFFFFFFQDHNNKSINSYNKINSSSTYTHSRILKQLEFITLEEKTVNALQEMLDSVEEDPSEKKCNRLLAKLKIRNEYHKHRKPHNYYARKNKKKEQKRQHLKKNKGKLNRLQQLEEKLFTHADLLRSAIFERTSRVPDGIFYT | not soluble |
| MGSDKIHHHHHHMNIFDILRDYLLVQVDKYNLNMDMISIVSKSLSSKEAIGNTKRKDFPIIVGKEIMLEADFKGAKGQAFTSTPSTFEGSLKDILSLDLHDNPHDRSLFIASLNAVMKYLGKTDRTIHCKNNEPEVCAKKFPEFIKMEFGNPKVAIIGYQPAIIDNIKDFFETRVLDLNPEFVDTIQYNVKIEDGIRDYEDVISWADLVICTGSTLCNNSIINFLSLNKPVYYYGTTIAGASNILGLKRLCFCSK | not soluble |
| MKFTIMSKGDQSSDTLASTMKEYLLDFGFIMDEKEPDIVISVGGDGTLLYAFHRYYNRLDETAFVGVHTGHLGFYADWLPTEVEKLVIAIAKTPFQVVEYPLLEVIIRYVNGSKESQYLAMNEATVKSAEGTLVTEVEIRGEYFETFRGDGLCISTPSGSTAYNKALGGAIIHPSIEAIQIAEMASINNRVFRTVGSPLVLPKHHTCVLKPAAGMNLQITVDHLTMVHQDVKSIQYRVANEKVRFVRFRPFPFWKRVRDSFVADKLEHHHHHH | not soluble |
| GISYSVEADPDTTAKAMLRERQMSFKHSKAIAREIKGKTAGEAVDYLEAVIEGDQPVPFKQHNSGVGHKSKVDGWDAGRYPEKASKAFLDLLENAVGNADHQGFDGEAMTIKHVAAHKVGEQQGRKPRAMGRASAWNSPQVDVELILEEPEVED | soluble |
| MSLFPNYEFSFRPIARKFVRSLVTSHGIWEVREAIILRLTDTTGKVGWGEIAPISWFGSETLAQALDFCRQLPEEITQEIIFSIPDDLPACQFGFESALEAMGSGEDVTITNAQFSALLPAGEAALHQWQSLWDEGYRTFKWKIAVGEVAQELRIFDSLTQILPASAKLRLDANGGLSYPEAHLWLQACDNLPVEVEFIEQPLPVEQFSQMLELSEAYPTAIALDESVANLKQLAACYAQGWRDVFVIKPAIAGSPSRLRQFCQQHEIDAVFSSVFETAIARKASLQLAAELSRDNRAVGFGVNHLFHQEAENWLQSLWNNPEGHHHHHH | soluble |
| MDVTRQIELAHRYMKDFHKSDYSGHDVAHVERVTSLAQTISKCEQQGEYLIITLSALLHDVIDDKLTNKANALDRLKTFLKNIRVSSDQQQKIIYIIQHLSYRNGQNNHVDLPIEGQIVRDADRLDAIGAIGIARAFQFSGHFNEPMWTESPHSDIPNIETITNLEPSAIRHFYDKLLKLKDLMHTETGRKLARERHAFMEQFLNQFYKEWHILEHHHHHH | soluble |
| MSLKRYRTLLFDVDDTILDFQAAEALALRLLFEDQNIPLTNDMKAQYKTINQGLWRAFEEGKMTRDEVVNTRFSALLKEYGYEADGALLEQKYRRFLEEGHQLIDGAFDLISNLQQQFDLYIVTNGVSHTQYKRLRDSGLFPFFKDIFVSEDTGFQKPMKEYFNYVFERIPQFSAEHTLIIGDSLTADIKGGQLAGLDTCWMNPDMKPNVPEIIPTYEIRKLEELYHILNIENTVSEGHHHHHH | soluble |
| MSDTPSKKQKRRATIFVTGPQSKKTIFEGEEIKEEGNQTTLQDLAIARQRLHNELAVVNTTSGIEILMQIVMDELEVVRHRLRENGQRMRNFFGDGAVQIRAILIRIFSKSISSRNMLEYKKDAKVILNELCDQNITYKMPRYTLNDMEEILLTDDLEDGVIQRRSEKWECLPERQKPMFDEDEDAFCEFRKMNVPMSMTFDDDDEDRLSMPSTRTGVTALTTEDQMAAIQNQLAMLSKQLMCLQKSGVETKRASSRASSRRGGIIAKKASLEISSNSSSDVSEDEGKGPSVCSPSSSSKTSTASVQLAPMCMAPPPPPPPPLPKMSQKIPLSEIKSDNKLSTVTPSKPAEKKSSPKSLPPAETIVSNRPYLTDIAHGRSMLKKTVRSPGGSPACQVRHQKRPVSSFEAALRDRFRGFHGDASFSEQEENGEDDDLSATWDE | not soluble |
| MHRLKYLTGYPPQLTAQVAHLVTENRLGEVLVQRYPTVHDVRTDRALYDFTVAVKNEFMRTAQPLSRVLYDGKIHAIKNALGTHTFVSRVQGGKLKAKHEIRIASIFREAPLEFLKMIVVHELAHLKEKEHNKAFYQLCEYMEPRYHQLEFDTRLFLTQVEIAGSPYLPLEHHHHHH | soluble |
| MNYILGTILESKITGVEKAQINRLKLFKQHGISSKCVYVKWNPYSYTYAKQHQIENDVFTMYDYFQKAINYKKTKQVNWIQYWEKSCRYTLKFVENSNDVRIYDEEQFVMYAHFLDKQYHQLNYVNYFDHKRRKVKRELYDGRGFLSCSRILGEGQRIVLENYYTPNGEIVIQKYFDDIKGKNTLTKVILNEDQHQQFFDTEDELVQYFLHQLCKNNDQIILDRPHELGNVIAGLNQSIPVIVVLHSTHLSGAGNGIKSFYKTVFNNLTRYKAIVVSTEKQCQDISQYIENKIPVINIPVGYVANLKYQFDINQKEKNHIISIARLVENKQIKHQIEVIKQLVTKHPNIQLNIYGHGNGLSEYRQLVEDYHLSEHVKFHGFKTHINEEIAKAELMLSTSKMEGFGLAILESLSVGTPVISYDVDYGPSELIQDGFNGYLVPQGDINQMVEKVDQLLNNTQKLQQFSINSIESAQQYNATTISTKWQNILN | not soluble |
| MPGFNYGGDQDEVYTPYRRVLVTGATGLLGRAVYKEFKNNDWDALGCGYNRARPFFLKCNLLDEDAVRGVIQSFQPHVIVHCAAERRPDVVERHTEAAMNLNVHACATLAKEAGGSFLIYISTDYVFDGRNPPYGENDAPNPLNLYGKSKLEGEREILRHCPGAAVLRVPILFGEVEKVEESAVTVLFERVQEGAESCTIDHCQQRFPTYTNDVARVCRNMAERALQDQSLRGIFHYSAKEQMTKYEMTCAIADAFNLPSSHLIPMTEQPAGAGAQRPQNAQLECSRLELLGLSVESTPFKNAIRDSLWPFQHDKRWRQTVFH | soluble |
| MFRIGQGFDVHEFAEGRPLIIGGITIPHEKGLIGHSDADVLLHTIADACLGAIAAGDIGKHFPDTDPAFKDADSAVLLQKVWEFVREQGYELGNLDCTIIAQKPKMAPHIESMRKRISELLETSIDNINVKATTTEKLGFTGREEGIASQAVVLLQKK | not soluble |
| KERIIGDLSQPVAVRVRTLIQQMTLAEKVAQLVSESDSIPRLNLPAYNYWNECLHGVARAGEVTVFPQAINLASTWDTVLVKRVASAISTEARLKYLEIGKGLTYWSPTINMARDPRWGRNEETYGEDPHLTSRLGVAFVKGLQGDHPTYLKTVATIKHFVANNEENNRFSSSSQIPTKQLYEYYFPAYEACVKEANAQSVMTAYNAFNGVPPSGSHWLLDDVLRKEWGFDGFVVSDCGAIGVMNWQHRVVNSLEEAAALGVNSGCDLECGTTYKEKLVQAVEQGLISEAAIDRALTRVLTARFKLGEFDPMELVPYNHYDKKLLA | not soluble |
| MGSDKIHHHHHHMFGPGGTQIPNPLRLKRPEGELVWAHATTQERLLGLCDVGCRLKMMRPDLSVMLTWEEDMRPAKLPEGCDIPLGPLTVEQPNDIRNFLDNWSPDVCVWAGGRLRRLLMRHMREREMPALLCDIDADELPSRASRWLPDQRHRLLNGFAAILVPGTEVSERLKRAGVAPERIHPAGRLFQSSTPPSCNDDELAQMQKQFASRPLWLAAHVSLSELPAVLKAHRGALRLLHRLLLVLTVDTFEDLDAARSLLRKEGLSFADWDMGEDPEDHTQVAIGLTENLGLWYRLCPISFLGNSLIRGAQGTNPLDAAALGSAILHGPGVVAHAQAYQRLAALDAAERIHGEEELADAVFRLSSPDRAAEMALAGWQVVTEGAVMTDTLLERIQDLLDQSELSHAPA | not soluble |
| MAHHHHHHMHDIGGAELVVAVHQPAAASHGQPFCHEHGKAKTESAGHNLQHAAAIHRNVPKHTRALVVFVARRTPQAVLYGEHGAAADTEVRRKSVHHVRLRPDNAVVHVEHTGQVRTEAALHEDSRARFPATQQRRARHDKPRRQKPDAVQNKRGAVPESRTARGRQHVLRPANRRAQR | soluble |
| SRRLGKSLGINSIPCKFCSYDCVYCQVGRTINKTIERREFYSPEDIFKSVEERIGKLNNEKIDYLTFVADGEPTLDINLSKEVEMLRDFDIPIAIITNSSLIWREDVRNDILNFDLVSFKVDSVDEKIWREINRPHKDLVLDKILEGMIAFRDNYKGELITETMILGSIKYTEESIIKTAEFLKELNPNKCYLNTPIRPPSEKYIKPPKIEVITKILAIFNEIIGKNKIKLLGKFE | not soluble |
| MPHAPQEQIAPLLTTEGWELLASLGPYREADSFSVNAHLRKAGHSPELVAAVLTQSRLRTRAEAKFGEFARQMLFTQAGLEQATRLNVAARHAERFAKAGISHVADLGCGLGADSMAMASMDISVTAVEMDETTAACATINLMPFPHATVVHADATSVELDGMDGVWLDPARRTTSTSGTKRIWDPEAFSPPLSFVERLAATGRAIGVKMGPGIPHDSVPPGCEAQWVSVGGDVTEVTLWFNAVARPGVRRAALVIGNQGAAEITSGADFDGGPVAAVGPVEGFLYEPDGAVIRAGLVADVAGRLGGHLVDEHIAYICAPELHDTPFARAFKVLEVMPYNVKALKAWVKNQGITVLDIKKRGTAVTPEELRKQLLPAKPVKGKDAKTATLVLTRIGEERVAVVVEPVTA | soluble |
| MDAVSKAAIRLLDTIGITGVTKVNTYAGPEQEYFLIDKKFYAQRPDLIMTGRTLLGALPPKGQQLEDHYFGSIPDRVLEFMQEVEEELFLLGIPAKTRHNEVAPHQFEIAPIFEQVNLASDHNLLVMEVMRKVADKKGFALLLFEKPFAGINGSGKHNNWSIGIDGGMNLLDPGDTPESNISFLVFLVAVLKGVLKRSAILRASVASIGNDHRLGANEAPPAVITVFLGDLLEKVLDAIESGKVDLKTEKQILDLGLSHVPVLNKDYTDRNRTSPFAFTGNKFEFRAVGSSQPISVPNMVLNTIMAEALDDLNAEILAKIEGGMAKEDAILAAVRDGIIATKAVRYPGDNYSEDLQRAAAERGLPNMKNTPESVRAWTDKDTVSMFVKYGVLTAEEIESRYNVRIERYVKGIDI | not soluble |
| MNEDAWNKETYSAWVKRFGTPDTAAKKISKDPSKILSVLHEKLGDVKGKKIMNIMGSNGSKAVALALLGADVTVVDFSKGNMDYALDLAKEADVKIDYILSDILKLPEDKLTADYDIVFAEMGIIHYFIDLKPFIKTINRLLKEGGLFVLRDFHPVSTKLITSRGSTAKVRKHKVTGDYFDTSLEEKDAAFSKYLIDNKEPEKVLLRKWTLGEIVTSVAEGGFKIKKLDEEPNLSCDNFDKGIPKSFTLTSEKLSLEHHHHHH | soluble |
| MNIQLSPLEARVIGCLIEKEVTTPDHYPLTLNSLTTACNQKSNREPVLNLSEAEVQDTVEGLIARRLVSDESSFNSRTSKYQHRFCNTEFGDLKLNQQELGLICCLLLRGAQTPGELRTRTNRLCTFTDVKETEAVLERLANRDSGALVVKLPREPGKRESRYHHLFCGEVDMAA | soluble |
